Five substances from paper PMC4890791 can be followed below.

For orientation: Kd means a measure of binding affinity in units of concentration. Low values mean tighter binding, high ones weaker binding.

Holding throughout (test): EMSA
Common to all, as to conditions: EMSA: 10 mM NaCl, 0.1 mM DTT, 0.1 mM EDTA, 10 mM Tris pH 7.4, 25 C 30 min (22-42 C series in Fig 5C), 20 ng Cy5 probe, poly(dI:dC); footprinting: 400 ng FAM …
(In general: In EMSA bound probe runs differently from free probe, usually more slowly.)

The test system of series [1] is T1, AphA (Vibrio alginolyticus (EPGS)), ORF:ebbe691c.
T1 sequence: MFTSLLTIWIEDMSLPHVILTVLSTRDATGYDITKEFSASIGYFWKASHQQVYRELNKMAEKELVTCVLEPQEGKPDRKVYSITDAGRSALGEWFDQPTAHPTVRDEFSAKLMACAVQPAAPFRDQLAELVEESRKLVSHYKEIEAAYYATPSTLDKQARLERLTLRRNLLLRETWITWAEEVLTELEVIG

The target in series [2] is T2, RpoE (sigma E) (Vibrio alginolyticus (EPGS)) (UniProt A0A0H0YA85).
T2 sequence: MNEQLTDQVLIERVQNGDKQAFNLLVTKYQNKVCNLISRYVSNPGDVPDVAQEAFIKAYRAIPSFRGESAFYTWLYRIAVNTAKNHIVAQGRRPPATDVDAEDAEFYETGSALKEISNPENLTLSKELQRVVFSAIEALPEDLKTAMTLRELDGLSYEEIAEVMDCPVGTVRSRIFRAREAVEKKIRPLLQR

Series [3] relates to RpoE (sigma E) (Vibrio alginolyticus (EPGS)).

On to “AGTCGCACGCAAACGATCACCTAATCTTACGGCGTGTAGTGTATCACCACGTTCATTGGGTTGAAAGTCGCATCCTGTTGCCAAAAAATCTTGGAAGAAGGTCTTAGTTTTATAAAGTTCATAGCTAAATTTATCAATAATAATGACATTACTGTATATAAATTGTTCTACAGATGTTGACCTTGTGCATATGCACCATTACACTCATCACTGCTTTAAGCAACTATTAAAATAATCAATTAGGGGGTTACCCCCAATATCAACTCAAATGGCAAGGAAAATGGAT (double strand) [PluxR]”, for which the binding entry in series [1] is recorded as “binds”. Also, in series [2], the Kd stood at 83 nM and the binding result is recorded as “binds”.

For PrpoE, the Kd in series [3] stood at 76 nM. In other words, the double-digit nanomolar range.

Regarding “AAGATGCTCGCTTGTCAAACTTAGACTAAAGTCAGGCAGCGGTGGTCATTTGGGTACAGACATCACACTGTGAAAAAACAATGACAAAAAACTTGAGAAACCATGGAACTTTCTCATTCACGTTAGGGTCACAATAGTGCTCAAGTAAGCAGTGGTGTCAATACTACGTTTTGCATAATTAGTACCCATATCTGAGAAGAGTAGGGGCATAACAAATAGGAGTATCCGCTCGAATG (double strand) [PrpoE]”, in series [2], the Kd was 76 nM and the binding entry is recorded as “binds”. In series [3], PrpoH gave a Kd of 75 nM. For PluxR, in series [3], the Kd is 83 nM.
